Changes are numbered by the printed parent chain.
B1: 14L 18L 31S 73W 117V 72A (protein, listed as Rattus norvegicus)
chain: AFDGTWKVDRNENLEKFLEKMGINVVKRKLSAHDNLKLTITQEGNKFTVKESSNFRNIDVVFELGVDFAYSAWDGTELTGTWTMEGNKLVGKFKRVDNGKELIAVREISGNELIQTVTYEGVEAKRIFKKE
modifications: PEPTIDE (1)...(131) wild-type rat intestinal fatty acid binding protein
B2: 104T 115A 74F 72A (protein, listed as Rattus norvegicus)
chain: B1 chain with L14Y, L18M, S31G, W73A, D74F, A104T, Q115A, V117Y
modifications: PEPTIDE (1)...(131) wild-type rat intestinal fatty acid binding protein
B3: 18I 31Y 73I 72A (protein, listed as Rattus norvegicus)
chain: B1 chain with L14Y, L18I, S31Y, W73I, V117Y
modifications: PEPTIDE (1)...(131) wild-type rat intestinal fatty acid binding protein
B4: 18L 73F 117G 72A (protein, listed as Rattus norvegicus)
chain: B1 chain with L14Y, S31G, W73F, V117G
modifications: PEPTIDE (1)...(131) wild-type rat intestinal fatty acid binding protein
B5: 18V 31Y 55I 73G 72A (protein, listed as Rattus norvegicus)
chain: B1 chain with L14Y, L18V, S31Y, F55I, W73G, V117Y
modifications: PEPTIDE (1)...(131) wild-type rat intestinal fatty acid binding protein
B6: 18I 55G 73M 72A (protein, listed as Rattus norvegicus)
chain: B1 chain with L14Y, L18I, S31G, F55G, W73M, V117Y
modifications: PEPTIDE (1)...(131) wild-type rat intestinal fatty acid binding protein
B7: 14L 31W 117V 72A (protein, listed as Rattus norvegicus)
chain: B1 chain with L18M, S31W, W73A
modifications: PEPTIDE (1)...(131) wild-type rat intestinal fatty acid binding protein
B8: 18I 31F 73V 72A (protein, listed as Rattus norvegicus)
chain: B1 chain with L14Y, L18I, S31F, W73V, V117Y
modifications: PEPTIDE (1)...(131) wild-type rat intestinal fatty acid binding protein
B9: 18V 31V 73I 72A (protein, listed as Rattus norvegicus)
chain: B1 chain with L14Y, L18V, S31V, W73I, V117Y
modifications: PEPTIDE (1)...(131) wild-type rat intestinal fatty acid binding protein
B10: 14L 18L 73W 117S 72A (protein, listed as Rattus norvegicus)
chain: B1 chain with S31G, V117S
modifications: PEPTIDE (1)...(131) wild-type rat intestinal fatty acid binding protein
B11: 18I 31L 72A (protein, listed as Rattus norvegicus)
chain: B1 chain with L14Y, L18I, S31L, W73A, V117Y
modifications: PEPTIDE (1)...(131) wild-type rat intestinal fatty acid binding protein
B12: 14Q 18S 73I 117W 72A (protein, listed as Rattus norvegicus)
chain: B1 chain with L14Q, L18S, S31G, W73I, V117W
modifications: PEPTIDE (1)...(131) wild-type rat intestinal fatty acid binding protein
B13: 18G 31F 73L 72A (protein, listed as Rattus norvegicus)
chain: B1 chain with L14Y, L18G, S31F, W73L, V117Y
modifications: PEPTIDE (1)...(131) wild-type rat intestinal fatty acid binding protein
B14: 38W 106H 117A 72A (protein, listed as Rattus norvegicus)
chain: B1 chain with L14Y, L18M, S31G, L38W, W73A, R106H, V117A
modifications: PEPTIDE (1)...(131) wild-type rat intestinal fatty acid binding protein
B15: 18I 31L 73G 72A (protein, listed as Rattus norvegicus)
chain: B1 chain with L14Y, L18I, S31L, W73G, V117Y
modifications: PEPTIDE (1)...(131) wild-type rat intestinal fatty acid binding protein
B16: 14L 18L 31Y 73L 117A 72A (protein, listed as Rattus norvegicus)
chain: B1 chain with S31Y, W73L, V117A
modifications: PEPTIDE (1)...(131) wild-type rat intestinal fatty acid binding protein

Assay: Probe fluorescence ratio response to palmitoleic acid relative to ADIFAB2
Format: binding
Conditions: response relative to ADIFAB2
Method in brief: (§1)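 Each fatty acid's response was expressed relative to ADIFAB2, the rI-FABP-L72A probe, as ΔR/ΔRreference. ΔR is the change in the background-corrected two-wavelength intensity ratio R=Fλ1/Fλ2 from its analyte-free baseline R0. Emission was read near about 420-480 nm for unbound and about 495-580 nm for FFA-bound probe.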

Molecule | DR/DR POA
B1 | 1.356
B2 | 1.661
B3 | 2.620
B4 | 1.731
B5 | 1.106
B6 | 1.201
B7 | 1.768
B8 | 2.665
B9 | 1.334
B10 | 0.750
B11 | 1.187
B12 | 0.834
B13 | 1.235
B14 | 1.098
B15 | 1.377
B16 | 2.317

Assay: Probe fluorescence ratio response to linolenic acid relative to ADIFAB2
Format: binding
Conditions: response relative to ADIFAB2
Method in brief: as §1

Molecule | DR/DR LNA
B1 | 1.631
B2 | 2.206
B3 | 2.865
B4 | 1.913
B5 | 1.228
B6 | 1.284
B7 | 1.894
B8 | 2.738
B9 | 1.531
B10 | 1.499
B11 | 1.384
B12 | 0.894
B13 | 1.235
B14 | 1.397
B15 | 1.525
B16 | 2.818

Assay: Probe fluorescence ratio response to arachidonic acid relative to ADIFAB2
Format: binding
Conditions: arachidonic acid; response relative to ADIFAB2
Method in brief: as §1

Molecule | DR/DR AA
B1 | 1.458
B2 | 2.635
B3 | 2.487
B4 | 2.445
B5 | 1.007
B6 | 0.895
B7 | 1.972
B8 | 2.649
B9 | 0.863
B10 | 1.010
B11 | 1.054
B12 | 0.878
B13 | 1.785
B14 | 1.326
B15 | 0.981
B16 | 2.987

Assay: Probe fluorescence ratio response to linoleic acid relative to ADIFAB2
Format: binding
Conditions: response relative to ADIFAB2
Method in brief: as §1

Molecule | DR/DR LA
B1 | 1.569
B2 | 2.231
B3 | 3.031
B4 | 2.283
B5 | 1.220
B6 | 1.127
B7 | 2.027
B8 | 3.096
B9 | 1.151
B10 | 1.385
B11 | 1.198
B12 | 0.784
B13 | 1.520
B14 | 1.248
B15 | 1.146
B16 | 2.948

Assay: Probe fluorescence ratio response to oleic acid relative to ADIFAB2
Format: binding
Conditions: response relative to ADIFAB2
Method in brief: as §1

Molecule | DR/DR OA
B1 | 1.208
B2 | 1.621
B3 | 2.322
B4 | 1.908
B5 | 0.994
B6 | 0.574
B7 | 1.580
B8 | 2.257
B9 | 0.670
B10 | 0.374
B11 | 0.719
B12 | 0.809
B13 | 1.365
B14 | 0.831
B15 | 0.595
B16 | 1.908

Assay: Probe fluorescence ratio response to stearic acid relative to ADIFAB2
Format: binding
Conditions: response relative to ADIFAB2
Method in brief: as §1

Molecule | DR/DR SA
B1 | 0.329
B2 | 0.877
B3 | 1.310
B4 | 0.663
B5 | −0.094
B6 | 0.360
B7 | 0.742
B8 | 1.294
B9 | 0.311
B10 | −0.005
B11 | 0.305
B12 | −0.044
B13 | 1.690
B14 | 0.071
B15 | 0.267
B16 | 0.762

Assay: Probe fluorescence ratio response to palmitic acid relative to ADIFAB2
Format: binding
Conditions: response relative to ADIFAB2
Method in brief: as §1

Molecule | DR/DR PA
B1 | 0.692
B2 | 0.720
B3 | 1.825
B4 | 1.039
B5 | 0.780
B6 | 1.137
B7 | 1.304
B8 | 1.893
B9 | 1.302
B10 | 0.259
B11 | 1.182
B12 | 0.559
B13 | 1.025
B14 | 0.426
B15 | 1.137
B16 | 1.444
